Non-standard residues stand in square brackets, D forms with d. *: point of attachment. d1Nal = N[C@H](Cc1cccc2ccccc12)C(=O)O; d2Nal = N[C@H](Cc1ccc2ccccc2c1)C(=O)O; d3Pal = N[C@H](Cc1cccnc1)C(=O)O; DO3A10CM = not defined here; Nicotinoyl = O=C(c1cccnc1)*; dCfe4 = not defined here; azaGly = NNC(=O)O; Sar = CNCC(=O)O; iPr = CC(C)*
How the values were obtained:
[1] = biological target: LHRH receptor (LHRH binding sites) on EFO-27 human ovarian cancer cells (human); assay: competition with [125I-Tyr8]BRU-2477 for binding to EFO-27 cells
EFO-27 cells = assay: Internalization/efflux studies in EFO-27 cells; type: cell-based, human
Procedure: Internalization/Efflux Studies: The internalization and efflux studies were carried out following the general procedure. Basically, ^177Lu-LHRH II or ^125I-LHRH II ([^125I-Tyr^8]BRU-2477) (75 uL, 3.0 μCi/mL) was added to the EFO-27 or PC-3 cells. The cells were incubated for 40 min at 37° C. The unbound radioactivity was washed off (4×). Following addition of fresh medium, the cells were further incubated for up to 2 h. At various time points (15, 30, 60 & 120 min) the distribution of radioactivity (membrane-bound, internalized, and efflux) was determined
The internalization and efflux of several Lu-177 labeled LHRH II analogs in EFO-27 cells have been investigated. Basically, following pre-incubation of cells with ^177Lu-LHRH II samples, the binding buffer containing the ^177Lu was replaced with fresh media without complex. The extent of initial internalization (T=0), the amount of radioactive material that remained internalized and the efflux at 0-120 min were determined. The results are shown in FIGS. 21a-f and 22a-c and in Table 25.

[2] = system: LHRH binding sites on human ovarian cancer cells (EFO-27);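 also: Cell-associated radioactivity on confluent EFO-27 monolayers in 96-well plates, measured by microplate scintillation counting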
[3] = biological target: LHRH receptor (LHRH binding sites) on EFO-27 human ovarian cancer cells (human); assay: competition with [125I-Tyr8]BRU-2477, EFO-27 cells
[4] = biological target: LHRH receptor (LHRH binding sites) on EFO-27 human ovarian cancer cells (human); assay: direct binding of 177Lu-labeled peptide to EFO-27 cells, single concentration
[5] = biological target: LHRH binding sites on EFO-27 human ovarian cancer cells (human); assay: competition with [125I-Tyr8]BRU-2477 on EFO-27 cells

| Molecule | EC50 [1] | EC50 [3] | other results |
| --- | --- | --- | --- |
| DO3A10CM-Adoa-Sar-His-Trp-Ser-His-Darg-Trp-Bpa4-Pro-azaGly-NH2 (Seq111) (peptide) | 3300 nM | – | – |
| N=C(N)NCCC[C@@H](NC(=O)[C@H](Cc1c[nH]cn1)NC(=O)[C@H](CO)NC(=O)[C@H](Cc1c[nH]c2ccccc12)NC(=O)[C@H](Cc1c[nH]cn1)NC(=O)[C@@H](Cc1ccc2ccccc2c1)NC(=O)CN1CCN(CC(=O)O)CCN(CC(=O)O)CCN(CC(=O)O)CC1)C(=O)N[C@@H](Cc1c[nH]c2ccccc12)C(=O)N[C@@H](Cc1ccc(C(=O)c2ccccc2)cc1)C(=O)N1CCC[C@H]1C(=O)NNC(N)=O [BRU-2666] | – | – | Cell associated activity at 0 h % Efflux (EFO-27 cells; 0 h): 5.5%; Cell associated activity at 0 h % Intern (EFO-27 cells; 0 h, internalized): 43.6%; Cell associated activity at 0 h % Memb (EFO-27 cells; 0 h, membrane bound): 50.3%; Cell associated activity at 2 h % Efflux (EFO-27 cells; 2 h): 80.6%; Cell associated activity at 2 h % Intern (EFO-27 cells; 2 h, internalized): 10.0%; Cell associated activity at 2 h % Memb (EFO-27 cells; 2 h, membrane bound): 9.5%; Bound % (EFO-27 cells; of added): 12.20%; Bound (EFO-27 cells; per well): 25.0 fmol; EC50 [2]: 470 nM; times more potent than the comparator analog ([2]; BRU-2441 vs BRU-2439, BRU-2666 vs Sar1 analog, BRU-3072 vs Pro9 analog): 2 |
| XRWSHXWXP (as printed: Sar-R-W-S-H-Darg-W-Bpa4-P-Dae-DO3A10CM (C-terminal chelator)) [BRU-3103] | 170 nM | 170 nM | – |
| XHWSHXWXPX (177Lu held by the N-terminal DO3A10CM: 177Lu-DO3A10CM-Sar-His-Trp-Ser-His-Darg-Trp-Bpa4-Pro-azaGly-NH2) [^177Lu-BRU-2443] | – | – | % Bound [4]: 1.8% |
| XRWSHXWXP (DO3A10CM on N-terminus; AA1 Dnal2; AA6 Darg; AA8 Bpa4; AA10 Da15o3pt (Pro9 amide of 1,5-diamino-3-oxapentane)) [BRU-2968] | 240 nM | 240 nM | EC50 [5]: 240 nM |
| XHWSHXWXPX (DO3A10CM on N-terminus; AA1 Dnal1; AA6 Darg; AA8 Bpa4; AA10 azaGly-NH2) [BRU-2869] | 360 nM | 360 nM | EC50 [5]: 360 nM |
| XHWSHXWXPX (as printed: DO3A10CM-Adoa-Adoa-Sar-His-Trp-Ser-His-Darg-Trp-Bpa4-Pro-azaGly-NH2 (Adoa-Adoa is the linker)) [BRU-2896] | 3200 nM | – | – |
| XXRWSHXWXPX (as printed: DO3A10CM-Gly-Abz4-Dnal2-Arg-Trp-Ser-His-Darg-Trp-Bpa4-Pro-azaGly-NH2 (Gly-Abz4 is the linker)) [BRU-3002] | 500 nM | 500 nM | – |
| DO3A10CM-G[Sar][dCfe4][d1Nal]S[Metyr][dK](Nicotinoyl)LK(iPr)P[dA]-NH2 (reading uncertain; also: 177Lu complexed by DO3A10CM, printed as 177Lu-DO3A10CM-Gly-Sar-Dcfe4-Dnal1-Ser-Metyr-Dlys(Nic)-Leu-Lys(isp)-Pro-Dala-NH2) [^177Lu-BRU-2613] | – | – | % Bound [4]: 0.17% |
| XRWSHXWXPG (as printed: Dnal2-R-W-S-H-Darg-W-Bpa4-P-G-Dabt14-DO3A10CM (C-terminal chelator)) [BRU-2990] | 30200 nM | – | – |
| XRWSHXWXP (as printed: Sar-R-W-S-H-Darg-W-Bpa4-P-bap14p-DO3A10CM (C-terminal chelator)) [BRU-3044] | 240 nM | 240 nM | – |
| GGHWSHXWXPX (as printed: DO3A10CM-Gly-Gly-His-Trp-Ser-His-Darg-Trp-Bpa4-Pro-azaGly-NH2 (first Gly is the linker)) [BRU-2795] | 1370 nM | – | – |
| XRWSHXWXP (as printed: Dnal2-R-W-S-H-Darg-W-Bpa4-P-Da15o3pt-DO3A10CM (C-terminal chelator)) [BRU-2991] | 210 nM | 210 nM | – |
| KXRWSHXWXPX (as printed: DO3A10CM-Lys-Dnal2-Arg-Trp-Ser-His-Darg-Trp-Bpa4-Pro-azaGly-NH2 (Lys is the linker)) [BRU-3097] | 450 nM | 450 nM | – |
| XHWSHXWXP (as printed: Sar-H-W-S-H-Darg-W-Bpa4-P-Dae-DO3A10CM (C-terminal chelator)) [BRU-3079] | 590 nM | – | – |
| XRWSHXWXP (AA1 Sar; AA6 Darg; AA8 Bpa4; C-terminal Pro9-NHNH-DO3A10CM) [BRU-3074] | 1480 nM | – | fold reduced binding against peptide 18 (BRU-3103) [5]: 5 to 6 fold |
| DO3A10CM-[Sar]HWSH[dR]WYP[azaGly]-NH2 (reading uncertain; also: 177Lu complexed by DO3A10CM, printed as 177Lu-DO3A10CM-Sar-His-Trp-Ser-His-Darg-Trp-Tyr-Pro-azaGly-NH2) [^177Lu-BRU-2440] | – | – | % Bound [4]: 0.21% |
| XXRWSHXWXPX (as printed: DO3A10CM-Dlys-Dnal2-Arg-Trp-Ser-His-Darg-Trp-Bpa4-Pro-azaGly-NH2 (Dlys is the linker)) [BRU-3099] | 440 nM | 440 nM | – |
| XXRWSHXWXPX (as printed: DO3A10CM-Dap-Dnal2-Arg-Trp-Ser-His-Darg-Trp-Bpa4-Pro-azaGly-NH2 (Dap is the linker)) [BRU-3096] | 370 nM | 370 nM | – |
| XRWSHXWXP (as printed: Sar-R-W-S-H-Darg-W-Bpa4-P-Bampy26-DO3A10CM (C-terminal chelator)) [BRU-3080] | 230 nM | 230 nM | – |

| Molecule | EC50 [1] | EC50 [3] | other results |
| --- | --- | --- | --- |
| XRWSHXWXP (as printed: Sar-R-W-S-H-Darg-W-Bpa4-P-Maz4dahp17-DO3A10CM (C-terminal chelator)) [BRU-3045] | 210 nM | 210 nM | – |
| XRWSHXWXP (as printed: DO3A10CM-Da48oa-Dnal2-Arg-Trp-Ser-His-Darg-Trp-Bpa4-Pro-Da15o3pt (Da48oa is the linker)) [BRU-3100] | 140 nM | 140 nM | – |
| DO3A10CM-G[d2Nal][dCfe4][d3Pal]SH[dR]WYP[dA]-NH2 (reading uncertain; also: 177Lu complexed by DO3A10CM, printed as 177Lu-DO3A10CM-Gly-Dnal2-Dcfe4-Dpal3-Ser-His-Darg-Trp-Tyr-Pro-Dala-NH2) [^177Lu-BRU-2644] | – | – | % Bound [4]: 2.13% |
| XHWSHXWXPX (DO3A10CM on N-terminus; AA1 Sar; AA6 Darg; AA8 Bpa4; AA10 azaGly-NH2) [BRU-2443] | 950 nM | – | EC50 [5]: 950 nM; fold improvement of EC50 against the Tyr8 analog (BRU-2758) [5]: 10 fold |
| XRWSHXWXP (as printed: Sar-R-W-S-H-Darg-W-Bpa4-P-Dapt15-DO3A10CM (C-terminal chelator)) [BRU-3085] | 400 nM | 400 nM | – |
| GHWSHXWXPX (as printed: DO3A10CM-Gly-His-Trp-Ser-His-Darg-Trp-Bpa4-Pro-azaGly-NH2 (Gly is AA1)) [BRU-2733] | 1180 nM | – | – |
| XRWSHXWXP (as printed: Sar-R-W-S-H-Darg-W-Bpa4-P-Da15o3pt-DO3A10CM (C-terminal chelator)) [BRU-3039] | 280 nM | 280 nM | – |
| XRWSHXWXP (as printed: Ac-Dnal2-R-W-S-H-Darg-W-Bpa4-P-Da15o3pt-DO3A10CM (N-acetyl; C-terminal chelator)) [BRU-2992] | 470 nM | 470 nM | – |
| XHWSHXWXPX (177Lu held by the N-terminal DO3A10CM: 177Lu-DO3A10CM-Sar-His-Trp-Ser-His-Darg-Trp-Nal2-Pro-azaGly-NH2) [^177Lu-BRU-2624] | – | – | % Bound [4]: 4.03% |
| XRWSHXWXP (as printed: Dnal2-R-W-S-H-Darg-W-Bpa4-P-Dabt14-DO3A10CM (C-terminal chelator)) [BRU-3042] | 200 nM | 200 nM | – |
| GXHWSHXWXPX (DO3A10CM-Gly (linker) on N-terminus; AA1 Sar; AA6 Darg; AA8 Bpa4; AA10 azaGly-NH2) [BRU-2717] | 1530 nM | – | EC50 [5]: 1550 nM |
| XRWSHXWXP (as printed: Sar-R-W-S-H-Darg-W-Bpa4-P-Da18o36oc-DO3A10CM (C-terminal chelator)) [BRU-3043] | 330 nM | 330 nM | – |
| XXHWSHXWXPX (as printed: DO3A10CM-Ambz4-Sar-His-Trp-Ser-His-Darg-Trp-Bpa4-Pro-azaGly-NH2 (Ambz4 is the linker)) [BRU-2727] | 650 nM | – | – |
| XRWSHXWXP (as printed: Sar-R-W-S-H-Darg-W-Bpa4-P-Daprp13-DO3A10CM (C-terminal chelator)) [BRU-3076] | 750 nM | – | – |
| XRWSHXWXP (as printed: Sar-R-W-S-H-Darg-W-Bpa4-P-Dabt14-DO3A10CM (C-terminal chelator)) [BRU-3041] | 360 nM | 360 nM | – |
| XRWSHXWX (as printed: Sar-R-W-S-H-Darg-W-Bpa4-Am2prd-DO3A10CM (C-terminal chelator)) [BRU-3117] | 340 nM | 340 nM | – |
| XRWSHXWXP (AA1 Sar; AA6 Darg; AA8 Bpa4; C-terminal Pro9-M1daprp13-DO3A10CM) [BRU-3086] | 1020 nM | – | fold reduced binding against peptide 18 (BRU-3103) [5]: 5 to 6 fold |
| XRWSHXWXPP (as printed: Sar-R-W-S-H-Darg-W-Bpa4-P-P-Az23po-Da15o3pt-DO3A10CM (C-terminal chelator)) [BRU-3073] | 840 nM | – | – |
| XRWSHXWXP (as printed: Sar-R-W-S-H-Darg-W-Bpa4-P-Ampip2-DO3A10CM (C-terminal chelator)) [BRU-3102] | 200 nM | 200 nM | – |

From US20120045393A1 (priority 2009, published 2012)
